Results as given in the supplement of paper PMC9170038.

Tested on: K4 kissing-loop RNA reporter
Assay: apparent KD of K4 kissing-loop reporter; higher = weaker reporter binding
Conditions: Eterna round: R107; input ligand: theophylline 20 uM
Protocol: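 RNA-MaP round R107: designed RNA switches with theophylline, tryptophan, arginine or FMN aptamers are transcribed on-chip within common flanks. They are titrated with a labelled K4 kissing-loop RNA reporter in RNA-MaP buffer (100 mM Tris pH 7.5, 80 mM KCl, 4 mM MgCl2), without ligand or with the indicated ligand. Median apparent KD per design.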
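Further: bound reporter read as fluorescence of individual clusters on recovered sequencing chips by microscopy, with normalized cluster intensities fitted with a binding model.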

Sequence | apparent KD of K4 kissing-loop reporter [nM]
CACAAUUAAUUACAGUGAUGUUGUAAUCUGCGAGGACCGGUACGGCCGCCACUCGGGCUUGUAGGGCGCCCACAUUCUUAUACUA [theeternabot_sameState_KL_Trp_A_29] | 428
AGGGUUAAUUAGUCUUUUUUCACAUUAAGUCAGGAUAUCGUAUUUUCGAGAAGGGACACAUGCUAGUGAUGUUAGCUAUUUCCCA [#02 K4 FMN A Exclusion] | 122
GCCGUACGCAUGGAUACCAGACUACCAUUGGAAACAAUGUGUCCGGUAGUGAUGUUACCUGUCCCUUGGCAGCCAUGCGUACGGC | 396
CACUUACGUAGUGAUGUUACGAUCUCUGAUACCAGACAACUCUAAGUCCCUUGGCAGCAGUCAUUUUGCUUCAAAUUUACUCAAA [JR_ExcTheophyA_Sub013] | 661
AAUACUAUCAGAAGGAGCGUGGAAUAUUCAUCUGUAUCUAAUACGAGUGAUGUUCGUAAUUCACAGGUAGGUCGCUGAUCAAUAA [whbob_Ex_Arginine_B_2th156] | 269
CGCAGUGAUGUUGCGAAUAUAAUUACGGAAGGAGCGCGUGAAAACGCAGGUAGGUCGCCGUUUGGUAUGAUGGAAACAUCGUACC [Arginine A K4 10] | 115
UCCAAGGACGAACCGGUAUGAUCACCGGAUACCAGAGGCGAAAGCCUCCCUUGGCAGCCGAGUGUAGUGAUGUUACACUGGUUCU | 94.5
GGAUCCACCAGUGAUGUUGGAGAAAACUCCAAGGAUAUGACGAAAGUCAGAAGGUGGUAGACUGGGCAAAGUCCGGUCGGAUCCA [FmnA10 G66] | 49.9
AAGCGUAAAAUGGCGGACAUACUGCUCCCACGAGGACCGGUACGGCCGCCACUCGAAUGCGGCAGUGAUGUUGCCGCCUUCGCGU [Zauslereed] | 69.9
AGUGUUGUAUGACGGUUUGUCACUUAGGAUCAGGAUAUAUAAACAAAUAGAAGGGAUGGCGGAGUGAUGUUCCGCCGGCCGCCAU [FMN A Exl V9] | 106
GCCGUAGAUCGAAGGAGCGUGUCCAAACCUCAUUCAUGUACACACGAGUGAUGUUCGUGUACACAGGUAGGUCGCGAUCUACGGC [#04 K4 Arginine B Exclusion] | 294

Same assay, conditions: Eterna round: R107; input ligand: tryptophan 2.4 mM

Sequence | apparent KD of K4 kissing-loop reporter [nM]
ACCAUCAAAGAUGGCCAGGACUCAACUGAUACCAGAGUGGAAACACUCCCUUGGCAGCAGGUGAGUGAUGUUCACGAGUCCUGGA [Omel KL Theo A SS B v8] | 787
AAGUGAUGUUGUAGUGAUGUUGUGAUGUUGCAGGAUAUAUAGUGAUGUAGAAGGGUAUGUGCAGUUUUCUUAUUUGAGUGUUGAU [zwzamullin] | 61.3
GUGCGGUGGAGGUUACCGCUAUUCUGAGAAGGAGCGCAGAUGACUGCAGGUAGGUCGCUUAGAGCUUGCAGUGAUGUUGCAAGUU [Berienza] | 200
AAGCAGUCACUCGACGCCAUCGAAGAUGGGCGAGGACCGGUACGGCCGCCACUCGGAGUGAUGUUCUGAAGACUGCAAAAUAAAA [MatMod 7 - Jieux - Exclusion - Tryptophan A] | 160
CGCGCGGGUUUGAGAGGGUUUGCGCGAAGUGAGGAUAUUUAGGGAGAAAGAAGGCACUAUAAAAUAUAGUGAUGUUAUAUAAGGG [SSFMNA.I] | 269
AAAAUAGAUCAGUGAUGUUGGUGUCUGGAUACCAGCGAUAAUAGUCGCCCUUGGCAGCCAUGGACGUACAAAAUAAGUACGUCCU [MatMod 20 - Jieux - Same State - Theophylline A] | 347
CGAGUGAUGUUCGUUCGUUUAUUUCGGUGACAGGAUAUGCGGAAACGCAGAAGGGUCACCUUUGGGUUACCGGAAUUAACGUUAU [Ex FMN A 30] | 584
UGACUGGACUGAAGGAGCGCUUAACUCCUAGUGAUGUUAGGAUAACGAGACAAAGUCUCGAAGCAGGUAGGUCGCAGUCUAGUCU | 128
AAUAAUAGUUGAGCAGGCGUGGUCUGAGAUACCAGUGAUUUCGAUCACCCUUGGCAGCUCAGCAUGAGUGAUGUUCAUGCUAUUC [Theo A Ex t10] | 131
AAUAAAAUCACGGCCGCCACUGAUUUCCAUAUUAGGAGUGAUGUUCCUAUGACUAUAUAAUUUAACAGGACCGGGUGAAUAUUUA [JR_ExcTryptoB_Sub012] | 93.5
GGCAUCCAUGGACCUAGUGAUGUUAGGUACCGAGGACCGGUACGGCCGCCACUCGGCCAUGGAUGCCGCAAUCGGAAACGAUUGC | 345
GGUAGCAUGGCGGCCGCCACUUCAAGUGGAGUGAUGUUCCACGGCAUCGCGAAAGCGAUGCCUGGAAGGACCGGGCCAUGCUACC | 284
AUCCGGAGUGCGGCCGCCACUAUCGGAUAGAGUGAUGUUCUAUCCGGCCUUAAAGGCGCGAACGAUAGGACCGGGCACUCUAAAU [Quatinti] | 122
GCCGUACGCAUGGAUACCAGUCAAGAUCAGUGAUGUUGAUCUUUUAUAGAGCCUACAUUUGACCCUUGGCAGCCAUGCGUACGGC | 247
AACUGUCAAGGACAACAUUACUGAGGUGAUACCAGCAUCGAAAGAUGCCCUUGGCAGCGCCAACUUGCAGUGAUGUUGCAAGUAA [BrourdMod 1 - Jieux - Exclusion - Theophylline A] | 164
UCGCAAAAGUCGGCCGCCACUCCGGGCCCUAUAAAUGGGCGCAGUGAUGUUGCGGCUAGGCCUCUGAGGACCGGGACUUUGUAGC [Tixelequ] | 156
